Test results: patent US20210054016, “Enzymatic RNA Capping Method” (NEW ENGLAND BIOLABS, INC., published 2021)

Target: Vaccinia capping enzyme (VCE) (Vaccinia virus, UniProt P04298;P04318 P04298:1-844,P04318:1-287)
Experiment: Cap50, 37 C, 30 min, 500 nM RNA, 1 mM MgCl2; 0.94 at 45 C, 4.08 at 50 C, 30.00 at 55 C

Question: With GUAGAACUUCGUCGAGUACGCUCAA (ssRNA, 5' triphosphate) [RNA1] as the binder, how does the EC50 read?
Answer: 3.06 nM
